Data taken from US12281161B2, “Polypeptides and uses thereof” (TRUSTEES OF BOSTON UNIVERSITY, priority 2021, dated 2025).
Read-outs that look alike come from different tables or passages of the source. Primed or numbered codes have the meaning given here. Where no end group is shown, it is not given here. [ ]: non-standard residue; d: D form. DBCO‑MMAE = DBCO-PEG3-glutamic acid-valine-citrulline-p-aminobenzylcarbamate-MMAE (DBCO-PEG3-EVC-PABC-MMAE); Lys(N3)′ = its azide, alkyne or alkene has reacted where a group follows in round brackets

Columns and labels:
[1] = test system: NCI-H358; assay: in vitro cytotoxicity (MTT); assay type: cell-based, human
Description: (§1) We utilized two different incubation methods.
(§2) We then incubated the human cell lines with ADC, and equivalent concentrations of MMAE and native Ab for both 48 hours and 72 hours, the results of which can be seen in FIG. 13A-13E. We expected the results to correlate with the GPR87 expression we observed by flow cytometry. For the normal cell lines, this was the case. As detailed in FIG. 14, the line that was most sensitive to the ADC were the NHLFs, followed by the BEAS-2Bs, and the line with the lowest GPR87 expression, the HUVECs, had the highest IC50 after 72 hours. However, both the NSCLC cell lines had relatively high IC50s given the GPR87 expression status of these lines.
(§3) In comparison, NCI-H358 and NCI-H520 see approximately a 4-fold or 2-fold decrease in IC50, respectively, between the two time points. On the other hand, the NCI-H520 line has almost a 10-fold increase in MMAE IC50 at 72 hours compared to 48 hours. The results are likely because the cell lines are different sizes and morphologies and therefore are at different confluencies when plated at the same number of cells per well and are therefore likely to be in different parts of their log growth phase during treatment. For example, the NSCLC lines are typically at very low confluency at a plating density of 5,000 cells per well and may not reach log phase growth until later in the assay. As MMAE affects actively dividing cells, this will affect the results of the assay. While 72 hours was not the optimized end time point for all five cell lines, in order to have a standardized cell plating density, and therefore same ADC:cell ratio, going past 72 hours for some of the cell lines would lead to confluency or death in untreated control cells, which would also confound results. Thus, we incubated the two NSCLC lines for longer periods of time to allow the control cells to become more confluent by the assay endpoint, and to see how this would affect the ADC IC50.
(§4) Standard cytotoxicity assays, like the MTT assays ran here, measure or rather, approximate the cell number at an end point and compare to control untreated cells. Effectively what is measured is a comparison between growth rates. When comparing the efficacy of a drug, particularly a mitotic inhibitor, among different cell lines, division rate differences due to biology, media additives, or seeding density can have a dramatic effect on the IC50, an issue brought up by Hafner et al. They reported with both modeling and in vitro assays how using the IC50 as a metric can actually mask the true mechanism of a drug, for example the microtubule inhibitor paclitaxel. […] GR values indicate whether a drug inhibits growth (0<GR<1), is cytostatic (GR=0) or cytotoxic (GR<0). To calculate this parameter, one needs cell count data for at least two different time points and compares experimental growth rates to the growth rate of control cells. […] Consequently, we reviewed the data at our two time points to perform a similar analysis. We plated at the same seeding density for both the 48 and 72 hour time points. As MTT is an endpoint assay rather than a kinetic assay like MTS, we can use MTT signal as a proxy for cell count. […] Therefore, we excluded this cell line from our analysis. We are technically assessing the effect the ADC or equivalent MMAE has on the growth rate of cells at 60 hours, as we are measuring at t=x±delta t, with x being 60 and delta t being 12 hours. Ideally, we would assess an earlier time point or even multiple time points. […] (FIGS. 19A-19D). Conversely, both NCI-H520 and NCI-H358 are cytotoxic (GR<0) at higher concentrations of ADC at this time point. […] While the GR50 data is still not in agreement with GPR87 expression, it does indicate that this type of analysis at other, earlier, time points is useful in assessing the dynamics of ADC and MMAE cytotoxicity in these cell lines.

[2] = biological target: GPR87 antigen (Homo sapiens, UniProt Q9BY21); assay: custom ELISA binding analysis of αGPR87 antibody, Ab-CCK and ADC
Chain of GPR87 antigen (Q9BY21 whole entry): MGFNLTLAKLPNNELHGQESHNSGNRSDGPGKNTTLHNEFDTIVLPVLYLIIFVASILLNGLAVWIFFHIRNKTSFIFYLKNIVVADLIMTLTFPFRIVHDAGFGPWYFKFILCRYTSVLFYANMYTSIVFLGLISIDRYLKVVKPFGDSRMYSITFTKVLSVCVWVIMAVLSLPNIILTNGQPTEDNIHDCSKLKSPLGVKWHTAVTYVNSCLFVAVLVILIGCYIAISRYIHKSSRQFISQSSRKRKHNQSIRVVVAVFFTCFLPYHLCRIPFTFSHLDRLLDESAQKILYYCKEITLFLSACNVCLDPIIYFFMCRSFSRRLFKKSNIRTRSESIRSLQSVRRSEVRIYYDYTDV
Description: With the CCE-MMAE peptide successfully synthesized and previous optimization of the antibody loading process with the AFC, it was facile to translate the method to formulating the ADC. Using a similar custom ELISA as before, but with a secondary antibody recognizing mouse antibody, it was contemplated whether the loading of CCE-MMAE, the 50° C. incubation, or even the expression of the peptide tails affected the binding affinity of the antibody. (FIG. 8C) What was found was initially surprising, which was that by adding the peptide tails onto the antibody, the Kd was affected. […] However, if it was taken into consideration the SEC data showing the larger aggregates formed by these antibodies, the results are more consistent. The original analysis was done by using the wt/vol concentration of the antibodies. However, if there are larger aggregates forming such as hexamers of Ab-CCK or hexamers, trimers, and monomers of the ADC, then equivalent wt/vol concentrations will vary by molarity. If it was assumed the Ab-CCK exists as a hexamer and therefore at the same wt/vol concentration as the native Ab is at one sixth the molar concentration, the binding data can be reanalyzed with these adjusted molarities. Similarly, it can be assumed the ADC is forming on average trimers and adjust the molar concentration by one third accordingly. The resulting curves are similar, with the Ab, Ab-CCK, and ADC having Kds of approximately 0.43, 0.46, and 0.41 nM, respectively.

[3] = test system: NCI-H520; assay: in vitro cytotoxicity (MTT); assay type: cell-based, human
Description: as §1, §2, §3, §4

[4] = test system: NIH-3T3; assay: in vitro cytotoxicity, negative control line; conditions: NIH-3T3, 10 μg/ml ADC, 72 hours
Description: We incubated NIH-3T3s with up to 10 μg/ml of ADC (67 nM, equivalent to 96 ng/ml of MMAE) along with the native antibody and MMAE alone at equivalent concentrations.

[5] = test system: BEAS-2B; assay: in vitro cytotoxicity (MTT); assay type: cell-based, human
Description: as §1, §2, §4

[6] = test system: NHLF; assay: in vitro cytotoxicity (MTT); assay type: cell-based, human
Description: as §1, §2, §4

[7] = test system: NCI-H358, NCI-H520, NHLF, BEAS-2B, HUVEC; assay: in vitro cytotoxicity, comparison of ADC and MMAE over the five cell lines; assay type: cell-based, human; conditions: 48 and 72 hours
Description: as §2
We investigated analyzing other parameters, such as the area under the curve (AUC) for the five cell lines as we noted that the hill slope was variable between different cell lines and between ADC and MMAE treatments. By assessing the AUC, we could interpret the total cytotoxicity of the treatment over all concentrations tested. Rather than the large (>100) fold differences in ADC and MMAE IC50s observed in FIG. 14, FIG. 16 indicates the difference in toxicity between the two are less pronounced, on the order of 1-3-fold difference. However, comparing the toxicity of the ADC across the cell lines, the relationships, or lack thereof, between toxicity and GPR87 expression remain largely the same.

[8] = Ab-CCK assumed hexamer, ADC assumed trimer (from SEC), read-out: Kd, reanalyzed with adjusted molarities
[9] = ELISA, analysed by wt/vol concentration, read-out: Kd

CCE-MMAE: CCE peptide (SEQ ID NO: 3) conjugated at azido lysine with DBCO-MMAE (MKLEEIVSELEEIVSELEEIV[Lys(N3)′](DBCO‑MMAE)ELEEIVYEVGER)
toxicity ([1]; NCI-H358, 72 hours, concentrations equivalent to ADC): Toxicity was only observed at the highest concentration

B1: Ab: native murine αhGPR87 IgG1 antibody (331CL), plasmids from Creative Biolabs (antibody)
heavy: EVQLQQSGPDLVKPGASMKISCKASGYSFTDYTMHWVKQSHGKNFEWIGLINPYNDGTTYNQKFKGKATLTVDKSSSTAYMELLSLTSEDSAVYYCASLDYWGQGTSVTVSSAKTTPPSVYPLAPGSAAQTNSMVTLGCLVKGYFPEPVTVTWNSGSLSSGVHTFPAVLQSDLYTLSSSVTVPSSTWPSETVTCNVAHPASSTKVDKKIVPRDCGCKPCICTVPEVSSVFIFPPKPKDVLTITLTPKVTCVVVDISKDDPEVQFSWFVDDVEVHTAQTQPREEQFNSTFRSVSELPIMHQDWLNGKEFKCRVNSAAFPAPIEKTISKTKGRPKAPQVYTIPPPKEQMAKDKVSLTCMITDFFPEDITVEWQWNGQPAENYKNTQPIMDTDGSYFVYSKLNVQKSNWEAGNTFTCSVLHEGLHNHHTEKSLSHSPGK
light: DVVMTQTPLSLPVSLGDQASISCRSSQSLVHSSGNTYLHWYLQKPGQSPKLLIYKVSNRFSGVPDRFSGSGSGTDFTLKISRVEAEDLGVYFCSQSTHVPYTFGGGTKLEIKRADAAPTVSIFPPSSEQLTSGGASVVCFLNNFYPKDINVKWKIDGSERQNGVLNSWTDQDSKDSTYSMSSTLTLTKDEYERHNSYTCEATHKTSTSPIVKSFNRNEC
Kd [2, 8]: ~0.43 nM | Kd [2, 9]: 0.4 nM

B2: ADC (conjugate)
heavy: EVQLQQSGPDLVKPGASMKISCKASGYSFTDYTMHWVKQSHGKNFEWIGLINPYNDGTTYNQKFKGKATLTVDKSSSTAYMELLSLTSEDSAVYYCASLDYWGQGTSVTVSSAKTTPPSVYPLAPGSAAQTNSMVTLGCLVKGYFPEPVTVTWNSGSLSSGVHTFPAVLQSDLYTLSSSVTVPSSTWPSETVTCNVAHPASSTKVDKKIVPRDCGCKPCICTVPEVSSVFIFPPKPKDVLTITLTPKVTCVVVDISKDDPEVQFSWFVDDVEVHTAQTQPREEQFNSTFRSVSELPIMHQDWLNGKEFKCRVNSAAFPAPIEKTISKTKGRPKAPQVYTIPPPKEQMAKDKVSLTCMITDFFPEDITVEWQWNGQPAENYKNTQPIMDTDGSYFVYSKLNVQKSNWEAGNTFTCSVLHEGLHNHHTEKSLSHSPGKGGGGGMKLKKIKSVLKKIKSVLKKIKSVLKKIKSVVGER
light: B1 light
peptide: MKLEEIVSELEEIVSELEEIVKELEEIVYEVGER
Kd [2, 8]: ~0.41 nM | Kd [2, 9]: ~1.3 nM | decrease in IC50 between 48 and 72 hours ([3]; NCI-H520): ~2 fold | IC50 ([3]; NCI-H520, ADC prepared at 50° C.): 3 nM | IC50 ([3]; NCI-H520, ADC prepared at RT): 4.9 nM | normalized growth rate inhibition (GR) ([3]; NCI-H520, higher concentrations of ADC, 60 hours): < 0 | IC50, start of time course ([3]; NCI-H520, incubation 48, 72 and 168 hours, first value of 'from ... to'): 12.87 ng/ml of MMAE equivalent ADC | IC50, end of time course ([3]; NCI-H520, longer incubation (up to 168 hours), last value of 'from ... to'): 5.24 ng/ml of MMAE equivalent ADC | decrease in IC50 between 48 and 72 hours ([1]; NCI-H358): ~4 fold | toxicity, 24 hours treatment + 48 hours fresh media vs 72 hours treatment ([1]; NCI-H358): no significant difference between the two treatment groups | normalized growth rate inhibition (GR) ([1]; NCI-H358, higher concentrations of ADC, 60 hours): < 0 | IC50, start of time course ([1]; NCI-H358, incubation 48, 72 and 120 hours, first value of 'from ... to'): 9.11 ng/ml of MMAE equivalent ADC | IC50, end of time course ([1]; NCI-H358, longer incubation (up to 120 hours), last value of 'from ... to'): 8.69 ng/ml of MMAE equivalent ADC | viability [4]: ~76% | IC50 ([5]; ADC prepared at 50° C.): 6.8 nM | IC50 ([5]; ADC prepared at RT): 5.3 nM | GR-based effect ([5]; at 60 hours): cytotoxic | GR50 [6]: do not reach that value | difference between 48 and 72 hour IC50s [6]: almost identical | IC50 ([6]; ADC prepared at 50° C.): 0.8 nM | IC50 ([6]; ADC prepared at RT): 0.8 nM | fold differences in ADC and MMAE IC50s ([7]; FIG. 14): > 100 fold | fold difference in toxicity (AUC) between ADC and MMAE ([7]; FIG. 16): 1-3 fold

B3: Ab-CCK: αGPR87 antibody 331CL with CCK peptide on the heavy chain C termini via a pentaglycine linker (antibody)
heavy: B2 heavy
light: B1 light
Kd [2, 8]: ~0.46 nM | Kd [2, 9]: 2.8 nM
